Test results published in patent publication US5912325A, “Biologically active porcine somatotropin polypeptides and methods of using the same” (American Cyanamid Company, priority 1994, dated 1999).

Test system: hypox rats
Assay: Biological assay for growth-promoting activity: net weight gain of hypophysectomized rats
Type: in vivo, rat
Conditions: 5 ug/day pST alone, day 0 to 4 and day 7 to 10, versus untreated rats, FIG. 4
Protocol: Hypox rats are injected subcutaneously with pST (5 ug/day) with or without antibody (2 mg/day) for 5 consecutive days and the net weight gain is recorded. Immune antibodies are prepared from two pigs that had been immunized with pST (54-95) and the control antibody is prepared from a pooled sera of non-immunized pigs. *,p<0.05; **,p<0.01.
In a study similar to that shown in FIG. 3, except antibody is injected at a dose of 0.5 mg/day and for a longer period of time. *,p<0.05; **,p<0.01; ***,p<0.001.
Hypophysectomized female Sprague-Dawley rats, 21 days of age and weighing 50-64 g, are obtained from Taconic Farm, Germantown, N.Y. and used to assay for Growth Hormone (GH). Female crossbred swine (Duroc x Yorkshire x Hampshire), 3-5 months of age, weighing 30-50 kg, are obtained from the breeding colony of American Cyanamid Co., Princeton, N.J. and used for the production of antibodies.
Hypophysectomized rats are randomly allocated to groups of eight. Antibody mixed with 5 ug pST at room temperature for 1 hour is administered subcutaneously in the neck region of experimental rats. All animals are treated daily for various periods of time and their growth is recorded as net weight gain. […]
The growth enhancing effect of these antibodies are evaluated in hypox rats. […] Net weight gains are recorded. […]

B1: pST: single chain polypeptide of 191 amino acids, growth hormone native to swine (protein, UniProt P01248 27-216, looked up)
Somatotropin: FPAMPLSSLFANAVLRAQHLHQLAADTYKEFERAYIPEGQRYSIQNAQAAFCFSETIPAPTGKDEAQQRSDVELLRFSLLLIQSWLGPVQFLSRVFTNSLVFGTSDRVYEKLKDLEEGIQALMRELEDGSPRAGQILKQTYDKFDTNLRSDDALLKNYGLLSCFKKDLHKAETYLRVMKCRRFVESSCAF
**Q.** B1 was tested. Which “growth (net weight gain)” value did it give?
**A.** marked growth as compared to untreated rats
